To fix the notation:
B1: anti-TrkA antibody Ab386 (antibody, V domains shown)
VH: QVQLQESGPGLVKPSGTLSLTCAVSGGSISSSNWWTWVRQPPGKGLEWIGEIYHRGNRNYNPSLKSRVTISVDKSKNQFSLKLSSVTAADTAVYYCARAPWFDYWGQGTLV
VL: SSELTQDPAVSVALGQTVRITCQGDSLRSYYASWYQQKPGQAPVLVIYGKNNRPSGIPDRFSGSSSGNTASLTITGAQAEDEADYYCNSQDSSGNHLIFGGGTKLTVLG
B2: anti-TrkA antibody Ab49 (antibody, V domains shown)
VH: B1 VH with Q1E
VL: SSELTQDPAVSVALGQTVRITCQGDSLRSYYASWYQQKPGQAPVLVIYGKNNRPSGIPDRFSGSSSGNTASLTITGAQAEDEADYYCASQASSGNHLIFGGGTKLT
B3: anti-TrkA antibody Ab145 (antibody, V domains shown)
VH: B1 VH with Q1E
VL: B2 VL with D25L, N52K
B4: anti-TrkA antibody Ab101 (antibody, V domains shown)
VH: B1 VH with Q1E
VL: B2 VL with D25G, N51G, A88N, A91D
B5: anti-TrkA antibody Ab147 (antibody, V domains shown)
VH: B1 VH with Q1E
VL: B2 VL with D25L, N51G, A88N, A91D
B6: anti-TrkA antibody Ab3 (antibody, V domains shown)
VH: B1 VH with I29V, S32G, R58T, S84N, Y95F, W101F
VL: B1 VL with Y48F, D91V, S93G
B7: anti-TrkA antibody Ab76 (antibody, V domains shown)
VH: B1 VH with Q1E
VL: B2 VL with S26A, N52K
B8: anti-TrkA antibody Ab142 (antibody, V domains shown)
VH: B1 VH with Q1E
VL: B2 VL with D25L, N52K, A88N
B9: anti-TrkA antibody Ab119 (antibody, V domains shown)
VH: B1 VH with Q1E
VL: B2 VL with D25A, N52K, A88N
B10: anti-TrkA antibody Ab70 (antibody, V domains shown)
VH: B1 VH with Q1E
VL: B2 VL with S26A
B11: anti-TrkA antibody Ab96 (antibody, V domains shown)
VH: B1 VH with Q1E
VL: B2 VL with D25G, N52K, A88N
B12: anti-TrkA antibody Ab122 (antibody, V domains shown)
VH: B1 VH with Q1E
VL: B2 VL with D25A, N52K
B13: anti-TrkA antibody Ab82 (as in Tables 4 and 6) (antibody, V domains shown)
VH: B1 VH
VL: B2 VL with S26A, N51G
B14: anti-TrkA antibody Ab67 (antibody, V domains shown)
VH: B1 VH with Q1E
VL: B2 VL with S26A, A88N
B15: anti-TrkA antibody Ab124 (antibody, V domains shown)
VH: B1 VH with Q1E
VL: B2 VL with D25A, N51G, A88N, A91D
B16: anti-TrkA antibody Ab79 (antibody, V domains shown)
VH: B1 VH with Q1E
VL: B2 VL with S26A, N51G, A88N
B17: anti-TrkA antibody Ab449 (antibody, V domains shown)
VH: B1 VH with Y104R
VL: B1 VL
B18: anti-TrkA antibody Ab476 (antibody, V domains shown)
VH: B1 VH with W101F, Y104R
VL: B1 VL with Y48H
B19: anti-TrkA antibody Ab676 (antibody, V domains shown)
VH: B1 VH with I29V, S32G, R58T, S84N, Y95F, W101F
VL: B1 VL with Y48H, D91V, S92Y, S93G
B20: anti-TrkA antibody Ab523 (antibody, V domains shown)
VH: B1 VH with I29V, S32G, S84N, Y95F, W101F
VL: B1 VL with G67W

Positions count from the first letter of the chain named.

T1 sequence (P04629 33-423 limits assumed): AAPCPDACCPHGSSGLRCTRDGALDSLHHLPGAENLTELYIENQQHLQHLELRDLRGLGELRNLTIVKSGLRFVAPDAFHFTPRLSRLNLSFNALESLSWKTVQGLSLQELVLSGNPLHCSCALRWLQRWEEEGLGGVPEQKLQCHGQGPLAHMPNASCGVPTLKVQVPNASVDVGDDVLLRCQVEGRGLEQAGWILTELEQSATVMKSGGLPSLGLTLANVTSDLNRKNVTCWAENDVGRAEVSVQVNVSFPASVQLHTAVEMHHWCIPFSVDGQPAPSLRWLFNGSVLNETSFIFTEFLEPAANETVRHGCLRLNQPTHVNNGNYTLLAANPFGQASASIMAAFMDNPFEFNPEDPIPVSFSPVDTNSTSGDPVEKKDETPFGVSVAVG
Chain of native rat TrkA on PC12 cells (P35739 33-799): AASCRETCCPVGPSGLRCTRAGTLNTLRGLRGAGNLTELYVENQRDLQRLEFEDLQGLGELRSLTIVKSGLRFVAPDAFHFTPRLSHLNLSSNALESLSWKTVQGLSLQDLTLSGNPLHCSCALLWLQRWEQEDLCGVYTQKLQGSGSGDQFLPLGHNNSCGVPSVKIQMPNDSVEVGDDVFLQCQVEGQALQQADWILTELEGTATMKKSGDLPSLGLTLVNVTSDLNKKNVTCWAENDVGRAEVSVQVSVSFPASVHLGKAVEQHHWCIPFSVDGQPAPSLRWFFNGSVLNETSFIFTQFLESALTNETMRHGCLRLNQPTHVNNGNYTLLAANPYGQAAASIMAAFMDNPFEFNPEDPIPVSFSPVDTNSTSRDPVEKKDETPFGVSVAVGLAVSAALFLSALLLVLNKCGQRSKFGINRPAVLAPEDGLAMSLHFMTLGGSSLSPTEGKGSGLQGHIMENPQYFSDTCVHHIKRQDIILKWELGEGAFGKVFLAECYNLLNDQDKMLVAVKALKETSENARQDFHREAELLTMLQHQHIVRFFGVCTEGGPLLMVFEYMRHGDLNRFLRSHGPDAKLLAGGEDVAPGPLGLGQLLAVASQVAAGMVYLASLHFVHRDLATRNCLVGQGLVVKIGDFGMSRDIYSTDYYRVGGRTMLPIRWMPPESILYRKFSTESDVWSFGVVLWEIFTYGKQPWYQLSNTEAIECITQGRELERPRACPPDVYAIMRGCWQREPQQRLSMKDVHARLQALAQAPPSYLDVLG

The first test concerns the target native rat TrkA on PC12 cells (rat, UniProt P35739 33-799). Nature of the test: cell-based or functional assay.
In the case of “mouse β-NGF (from UniProt P01139 122-241) (ligand)”, the Akt phosphorylation in PC12 cells, EC50 stood at 25 pM; the Erk phosphorylation in PC12 cells, EC50 came to 25 pM; the TrkA receptor phosphorylation in PC12 cells (AlphaLISA p-TrkA Tyr674/675), EC50 is 129 pM; the neurite outgrowth in PC12 cells at 138 hours, EC50 worked out at 7.8 pM.

For B1, the “Akt pathway activation (pEC50)” value came to 9 pEC50, the “Erk pathway activation (pEC50)” value came out at 9.23 pEC50 and the “Neurite outgrowth (pEC50)” value is 10.1 pEC50.

For B2, the “Akt pathway activation (pEC50)” value is 9.12 pEC50, the “Erk pathway activation (pEC50)” value stood at 9.29 pEC50 and the “Neurite outgrowth (pEC50)” value was 10.1 pEC50.

For B3, the “Akt pathway activation (pEC50)” value is 9.68 pEC50, the “Erk pathway activation (pEC50)” value worked out at 9.89 pEC50 and the “Neurite outgrowth (pEC50)” value came to 10.1 pEC50.

Consider B4, for which the “Akt pathway activation (pEC50)” value was 9.2 pEC50, the “Erk pathway activation (pEC50)” value stood at 9.45 pEC50 and the “Neurite outgrowth (pEC50)” value was found to be 10 pEC50.

Turning to B5, the “Akt pathway activation (pEC50)” value was determined as 9.25 pEC50, the “Erk pathway activation (pEC50)” value was determined as 9.11 pEC50 and the “Neurite outgrowth (pEC50)” value stood at 10.1 pEC50.

With B6, the “Akt pathway activation (pEC50)” value turned out to be 8.67 pEC50, the “Erk pathway activation (pEC50)” value is 8.86 pEC50 and the “Neurite outgrowth (pEC50)” value turned out to be 9.79 pEC50.

Consider B7, for which the “Akt pathway activation (pEC50)” value came to 9.57 pEC50, the “Erk pathway activation (pEC50)” value turned out to be 9.78 pEC50 and the “Neurite outgrowth (pEC50)” value was determined as 9.95 pEC50.

B8: the “Akt pathway activation (pEC50)” value is 9.53 pEC50, the “Erk pathway activation (pEC50)” value turned out to be 9.54 pEC50 and the “Neurite outgrowth (pEC50)” value was found to be 9.97 pEC50.

Regarding B9, the “Akt pathway activation (pEC50)” value turned out to be 9.25 pEC50, the “Erk pathway activation (pEC50)” value was 10.2 pEC50 and the “Neurite outgrowth (pEC50)” value came to 10.2 pEC50.

For the molecule B10, the “Akt pathway activation (pEC50)” value turned out to be 9.05 pEC50, the “Erk pathway activation (pEC50)” value is 9.21 pEC50 and the “Neurite outgrowth (pEC50)” value was 10 pEC50.

As for B11, the “Akt pathway activation (pEC50)” value came to 9.53 pEC50, the “Erk pathway activation (pEC50)” value was found to be 10.2 pEC50 and the “Neurite outgrowth (pEC50)” value was determined as 9.81 pEC50.

Turning to B12, the “Akt pathway activation (pEC50)” value amounted to 9.5 pEC50, the “Erk pathway activation (pEC50)” value came to 9.88 pEC50 and the “Neurite outgrowth (pEC50)” value was 9.6 pEC50.

As to B13, the “Akt pathway activation (pEC50)” value was determined as 9.09 pEC50, the “Erk pathway activation (pEC50)” value is 9.14 pEC50 and the “Neurite outgrowth (pEC50)” value was determined as 9.99 pEC50.

Regarding B14, the “Akt pathway activation (pEC50)” value was found to be 9.07 pEC50, the “Erk pathway activation (pEC50)” value was found to be 9.28 pEC50 and the “Neurite outgrowth (pEC50)” value is 9.96 pEC50.

On to B15, for which the “Akt pathway activation (pEC50)” value was 9.03 pEC50, the “Erk pathway activation (pEC50)” value came to 9.23 pEC50 and the “Neurite outgrowth (pEC50)” value came to 10.1 pEC50.

Turning to B16, the “Akt pathway activation (pEC50)” value turned out to be 8.97 pEC50, the “Erk pathway activation (pEC50)” value stood at 9.21 pEC50 and the “Neurite outgrowth (pEC50)” value is 10.2 pEC50.

The next test concerns the target T1, recombinant human TrkA (human, UniProt P04629 33-423, limits assumed).
T1 construct: also called hTrkA
Nature of the test: SPR, antibody captured on protein A chip, TrkA as analyte, single concentration, 1:1 model.
B1: the Kd came out at 1.15 nM, the koff stood at 0.000305 s⁻¹ and the kon is 266000 M⁻¹ s⁻¹.

Take B2: the Kd turned out to be 1.78 nM, the koff is 0.000472 s⁻¹ and the kon worked out at 264000 M⁻¹ s⁻¹.

Regarding B3, the Kd was determined as 1.5 nM and the koff is 0.000299 s⁻¹.

Regarding B4, the Kd stood at 1.29 nM, the koff came to 0.000352 s⁻¹ and the kon came out at 273000 M⁻¹ s⁻¹.

Turning to B5, the Kd was 1.19 nM, the koff is 0.000314 s⁻¹ and the kon is 264000 M⁻¹ s⁻¹.

Regarding B6, the Kd is 2.1 nM, the koff was found to be 0.000614 s⁻¹ and the kon was 293000 M⁻¹ s⁻¹.

As for B17, the Kd stood at 0.875 nM, the koff came out at 0.000244 s⁻¹ and the kon was 279000 M⁻¹ s⁻¹.

For B7, the Kd was 0.943 nM and the koff amounted to 0.000211 s⁻¹.

In the case of B8, the Kd stood at 0.999 nM and the koff is 0.000254 s⁻¹.

Regarding B9, the Kd is 1.11 nM and the koff came to 0.000265 s⁻¹.

On to B10, for which the Kd came out at 1.63 nM, the koff was found to be 0.000432 s⁻¹ and the kon turned out to be 265000 M⁻¹ s⁻¹.

Consider B11, for which the Kd came to 1.23 nM and the koff was determined as 0.000277 s⁻¹.

For the molecule B12, the Kd worked out at 1.45 nM and the koff is 0.000294 s⁻¹.

With B18, the Kd came to 1.25 nM, the koff turned out to be 0.0003 s⁻¹ and the kon came to 240000 M⁻¹ s⁻¹.

For B13, the Kd is 1.75 nM, the koff came to 0.000443 s⁻¹ and the kon came to 253000 M⁻¹ s⁻¹.

With B14, the Kd came to 1.91 nM, the koff was found to be 0.000477 s⁻¹ and the kon amounted to 250000 M⁻¹ s⁻¹.

With B15, the Kd was determined as 1.21 nM, the koff is 0.000327 s⁻¹ and the kon worked out at 271000 M⁻¹ s⁻¹.

In the case of B16, the Kd is 1.67 nM, the koff was found to be 0.000421 s⁻¹ and the kon is 252000 M⁻¹ s⁻¹.

As to B19, the Kd was 0.815 nM, the koff turned out to be 0.000216 s⁻¹ and the kon stood at 265000 M⁻¹ s⁻¹.

In the case of B20, the Kd is 1.3 nM, the koff is 0.000258 s⁻¹ and the kon was 199000 M⁻¹ s⁻¹.

The values above are taken from patent US20250122291A1 (CEPHALON, published 2025).
